Test [1] addresses 全長ヒトインテグリンアルファ4ベータ7 (expressed in 293 cells, purified by Fib504 affinity chromatography) (human) (UniProt P13612). Put plainly: Biacore SPR, Fab immobilised on CM5, alpha4beta7 injected (summary of Table 3).
In test [2] the target is T1, 全長ヒトインテグリンアルファ4ベータ7 (expressed in 293 cells, purified by Fib504 affinity chromatography) (human, UniProt P13612 34-1032; P26010 20-798).
T1 construct: mature; also called 固定化アルファ4ベータ7; α4β7
The test is described as follows: phage-displayed Fab on immobilised human alpha4beta7.

The values below come from JP2007302676A (dated 2007).

B1: hu504.32 (Fab) (Fab, V domains shown)
VH: EVQLVESGGGLVQPGGSLRLSCAASGFFITNNYWGWVRQAPGKGLEWVGYISYSGSTSYNPSLKSRFTISRDTSKNTFYLQMNSLRAEDTAVYYCAMTGSSGYFDFWGQGTLVTVSS
VL: DIQMTQSPSSLSASVGDRVTITCRASESVDDLLHWYQQKPGKAPKLLIKYASQSISGVPSRFSGSGSGTDFTLTISSLQPEDFATYYCQQGNSLPNTFGQGTKVEIKR
Molecule B1 showed a fold tighter binding relative to the starting rat antibody in test [1] of 3 fold.

B2: Fib504Kグラフト (HVR graft with light chain Y49K, Fab displayed on phage) (Fab, V domains shown)
VH: EVQLVESGGGLVQPGGSLRLSCAASGFFITNNYWGWVRQAPGKGLEWVGYISYSGSTSYNPSLKSRFTISADTSKNTAYLQMNSLRAEDTAVYYCAMTGSSGYFDFWGQGTLVTVSS
VL: DIQMTQSPSSLSASVGDRVTITCRASESVDTYLHWYQQKPGKAPKLLIKYASQSISGVPSRFSGSGSGTDFTLTISSLQPEDFATYYCQQGNSLPNTFGQGTKVEIKR
notes: also called hu504Kグラフト; ヒト化504Kグラフト
As to B2, the binding result in test [2] is “no binding”.

B3: Fib504グラフト (direct HVR graft, Fab displayed on phage) (Fab, V domains shown)
VH: EVQLVESGGGLVQPGGSLRLSCAASGFFITNNYWGWVRQAPGKGLEWVGYISYSGSTSYNPSLKSRFTISADTSKNTAYLQMNSLRAEDTAVYYCAMTGSSGYFDFWGQGTLVTVSS
VL: DIQMTQSPSSLSASVGDRVTITCRASESVDTYLHWYQQKPGKAPKLLIYYASQSISGVPSRFSGSGSGTDFTLTISSLQPEDFATYYCQQGNSLPNTFGQGTKVEIKR
notes: Tested as monovalent Fab-g3 on phage (VH-CH1 fused to truncated P3); also called hu504グラフト; ヒト化抗体504グラフト
As for B3, in test [2], the binding result is reported as “no binding”.
